{"source": "patent US20090325168", "key": {"DER-NorFES-KGY-DER": {"tested_on": "T1, DER-NorFES-KGY-DER", "T1 sequence": "DAIPXSIPKGY"}, "6-TMR-K-NorFES-KGY-DER": {"tested_on": "T2, 6-TMR-K-NorFES-KGY-DER", "T2 sequence": "KDAIPXSIPKGY"}, "6-TMR-K-NorFES-KGY-6-TMR": {"tested_on": "T3, 6-TMR-K-NorFES-KGY-6-TMR", "T3 sequence": "KDAIPXSIPKGY"}, "6-TMR-NorFES-KGY-DER": {"tested_on": "T4, 6-TMR-NorFES-KGY-DER", "T4 sequence": "DAIPXSIPKGY"}, "[1]": {"tested_on": "T5, Fl-NorFES-KGY-Fl (fluorescein-NorFES-fluorescein)", "T5 sequence": "DAIPXSIPKGY"}, "6-TMR-NorFES-KGY-6-TMR": {"tested_on": "T6, 6-TMR-NorFES-KGY-6-TMR", "T6 sequence": "DAIPXSIPKGY"}}}
{"substance": "elastase", "values": [{"measurement": "T1/2 (cleavage rate)", "setting": "DER-NorFES-KGY-DER", "result": 2.53, "unit": "min"}, {"measurement": "T1/2 (cleavage rate)", "setting": "6-TMR-K-NorFES-KGY-DER", "result": 2.08, "unit": "min"}, {"measurement": "T1/2 (cleavage rate)", "setting": "6-TMR-K-NorFES-KGY-6-TMR", "result": 1.4, "unit": "min"}, {"measurement": "T1/2 (cleavage rate)", "setting": "6-TMR-NorFES-KGY-DER", "result": 1.33, "unit": "min"}, {"measurement": "T1/2 (cleavage rate)", "setting": "[1]", "result": 0.3, "unit": "min"}, {"measurement": "T1/2 (cleavage rate)", "setting": "6-TMR-NorFES-KGY-6-TMR", "result": 0.733, "unit": "min"}]}
